# Experimental data taken from US20140056902A1.
# Assays:
# [1] = target: human BMP9 recombinant protein prepared according to Example 12 of WO 2010/126169 (N-terminal His-tagged hBMP9 complex, pLN1V5_human BMP9 vector) (human) (UniProt Q9UK05); experiment: SPR (BIAcore 2000), antibody captured on anti-mouse IgG, human BMP9 recombinant protein as analyte, single cycle kinetics
# [2] = target: human mature dimer BMP9 recombinant protein (manufactured by R&D systems, Cat#3209-BP) (human) (UniProt Q9UK05); experiment: ELISA, immobilized human BMP9 (100 ng/mL coat), biotin-labeled antibody titrated, absorbance 450-570 nm; unit ng/mL from the legend
# human mature dimer BMP9 recombinant protein (manufactured by R&D systems, Cat#3209-BP) (human), sequence (Q9UK05 320-429): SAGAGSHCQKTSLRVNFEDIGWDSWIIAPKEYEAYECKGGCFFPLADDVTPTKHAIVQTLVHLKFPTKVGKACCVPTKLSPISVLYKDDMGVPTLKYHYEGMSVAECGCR
# human BMP9 recombinant protein prepared according to Example 12 of WO 2010/126169 (N-terminal His-tagged hBMP9 complex, pLN1V5_human BMP9 vector) (human), sequence (Q9UK05 320-429, chain 1 of 2): as the sequence (Q9UK05 320-429) above
# human BMP9 recombinant protein prepared according to Example 12 of WO 2010/126169 (N-terminal His-tagged hBMP9 complex, pLN1V5_human BMP9 vector) (human), sequence (Q9UK05 23-319, chain 2 of 2): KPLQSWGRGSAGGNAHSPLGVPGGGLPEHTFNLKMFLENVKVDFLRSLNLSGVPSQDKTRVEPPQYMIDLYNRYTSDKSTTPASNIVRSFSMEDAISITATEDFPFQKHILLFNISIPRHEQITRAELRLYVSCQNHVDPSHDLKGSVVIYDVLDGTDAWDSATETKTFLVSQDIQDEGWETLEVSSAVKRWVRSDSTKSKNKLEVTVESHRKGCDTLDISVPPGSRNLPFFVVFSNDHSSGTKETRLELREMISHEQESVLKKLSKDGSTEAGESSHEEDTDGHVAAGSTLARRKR
substance,measurement,setting,value
"anti-human BMP9 mouse monoclonal antibody (manufactured by R&D systems, clone No. 360107)",Kd,[1],0.616 nM
same,Relative binding affinity (to R&D antibody),[1],1 fold
same,EC50 (read off the curve),[2],10 ng/mL
